Where “and” joins values, the source holds several entries; their conditions need not be identical. Identical values can stand only once. Like-named read-outs stand apart in the source and are kept apart here.
Assays:
[1] = molecular target: Pex5eTPR(Y358A) mixed beforehand with the PTS1 peptide of MDH (Trypanosoma cruzi) (UniProt Q4DPQ9); experiment: ITC; Pex14NTD in the syringe injected into Pex5eTPR + PTS1 peptide in the cell; 20 mM sodium phosphate, 100 mM NaCl, pH 6.5, 25 °C; independent model
[2] = molecular target: Pex5eTPR (wild type) mixed beforehand with the PTS1 peptide of MDH (Trypanosoma cruzi) (UniProt Q4DPQ9); experiment: as above
[3] = molecular target: Pex5eTPR(N353E) mixed beforehand with the PTS1 peptide of MDH (Trypanosoma cruzi) (UniProt Q4DPQ9); experiment: as above
[4] = molecular target: Pex5eTPR (truncated Pex5, extended TPR domain with one Wxxx(F/Y) motif; residues 314-666), Trypanosoma cruzi (Trypanosoma cruzi) (UniProt Q4DPQ9); experiment: ITC; Pex14NTD (175 uM, syringe) injected into Pex5eTPR in the cell, in the absence of PTS1 peptide; 20 mM sodium phosphate, 100 mM NaCl, pH 6.5, 25 °C
[5] = molecular target: Pex5eTPR(Y358A) (Trypanosoma cruzi) (UniProt Q4DPQ9); experiment: as above
[6] = molecular target: Pex5eTPR(N353E) (Trypanosoma cruzi) (UniProt Q4DPQ9); experiment: as above
[7] = molecular target: Pex5eTPR(GSGS) (Trypanosoma cruzi) (UniProt Q4DPQ9); experiment: as above
[8] = molecular target: Pex5_(eTPR) + PTS1 (complex of Pex5_(eTPR) with the PTS1 peptide, prepared before ITC) (Trypanosoma cruzi) (UniProt Q4DPQ9); experiment: ITC; Pex14NTD (175 μM) injected into Pex5_(eTPR) + PTS1 (20 μM + 50 μM peptide) in the cell; 20 mM sodium phosphate, 100 mM NaCl, pH 6.5; 25 °C
[9] = molecular target: Pex5_(eTPR)(Y358A) + PTS1 peptide (Trypanosoma cruzi) (UniProt Q4DPQ9); experiment: as above
[10] = molecular target: Pex5_(eTPR)(N353E) + PTS1 peptide (Trypanosoma cruzi) (UniProt Q4DPQ9); experiment: as above
[11] = molecular target: Pex5_(eTPR) with a GSGS-spacer between the Pex5 TPR domain and Wxxx(F/Y) motif + PTS1 peptide (Trypanosoma cruzi) (UniProt Q4DPQ9); experiment: as above
[12] = molecular target: MDH(Δ62–70) (Trypanosoma cruzi); experiment: ITC; Pex5_(eTPR) (250 μM) injected into MDH (25 μM) in the cell; 100 mM Hepes, 150 mM NaCl, 2 mM β-mercaptoethanol, pH 7.5; 25 °C
[13] = molecular target: MDH(GSGS) linker variant (Trypanosoma cruzi); experiment: as above
[14] = molecular target: 6-FAM labeled PTS1 peptide; experiment: fluorescence polarisation
[15] = molecular target: glycosomal malate dehydrogenase (MDH, residues 1–323) (Trypanosoma cruzi) (UniProt Q4DRD8); experiment: ITC; Pex5_(eTPR) (250 μM) injected into MDH (25 μM) in the cell; 100 mM Hepes, 150 mM NaCl, 2 mM β-mercaptoethanol, pH 7.5; 25 °C
[16] = molecular target: PTS1 peptide derived from MDH (NH2-ARSKL-COOH) (Trypanosoma cruzi); experiment: ITC; Pex5_(eTPR) with the PTS1 peptide (NH2-ARSKL-COOH); who was in the cell is not stated for the peptide; 25 °C
[17] = molecular target: glycosomal malate dehydrogenase (MDH), wild type (Trypanosoma cruzi); experiment: ITC; Pex5eTPR in the syringe injected into MDH in the cell; 100 mM Hepes, 150 mM NaCl, 2 mM beta-mercaptoethanol, pH 7.5, 25 °C; independent model; single titrations (replicates), each fitted by itself
[18] = molecular target: MDH(GSGS), glycosomal malate dehydrogenase with a GSGS linker between MDH and its PTS1 (Trypanosoma cruzi); experiment: as above
[19] = molecular target: 6-FAM labeled PTS1 peptide; experiment: fluorescence polarisation; remark: listed apart in the source
[20] = molecular target: T1, PTS1 peptide derived from MDH (NH2-ARSKL-COOH) (Trypanosoma cruzi); experiment: ITC; Pex5_(eTPR) with the PTS1 peptide (NH2-ARSKL-COOH); who was in the cell is not stated for the peptide; 25 °C
T1 chain: ARSKL

[21] = molecular target: T2, glycosomal malate dehydrogenase (MDH, residues 1–323) (Trypanosoma cruzi), Q4DRD8; experiment: ITC; Pex5_(eTPR) (250 μM) injected into MDH (25 μM) in the cell; 100 mM Hepes, 150 mM NaCl, 2 mM β-mercaptoethanol, pH 7.5; 25 °C
T2 chain: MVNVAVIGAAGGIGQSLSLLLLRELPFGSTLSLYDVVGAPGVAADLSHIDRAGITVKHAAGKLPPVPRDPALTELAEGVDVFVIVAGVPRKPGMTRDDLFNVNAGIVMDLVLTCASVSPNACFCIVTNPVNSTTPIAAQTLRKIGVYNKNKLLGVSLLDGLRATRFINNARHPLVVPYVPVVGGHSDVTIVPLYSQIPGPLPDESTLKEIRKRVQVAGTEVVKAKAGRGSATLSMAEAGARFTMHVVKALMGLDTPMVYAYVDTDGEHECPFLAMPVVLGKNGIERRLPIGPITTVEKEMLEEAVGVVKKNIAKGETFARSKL

[22] = molecular target: T3, glycosomal malate dehydrogenase (MDH, residues 1–323) (Trypanosoma cruzi, UniProt Q4DRD8 1-323); experiment: as above; details: both partners purified
T3 construct: glycosomal malate dehydrogenase (MDH), Trypanosoma cruzi, residues 1-323, UniProt Q4DRD8; Tetramer (two dimers related by D2 symmetry) by cryo-EM; also called cargo; MDH tetramer; source: E. coli BL21 (DE3), purified (Ni-NTA, SEC)
T3 sequence (looked up): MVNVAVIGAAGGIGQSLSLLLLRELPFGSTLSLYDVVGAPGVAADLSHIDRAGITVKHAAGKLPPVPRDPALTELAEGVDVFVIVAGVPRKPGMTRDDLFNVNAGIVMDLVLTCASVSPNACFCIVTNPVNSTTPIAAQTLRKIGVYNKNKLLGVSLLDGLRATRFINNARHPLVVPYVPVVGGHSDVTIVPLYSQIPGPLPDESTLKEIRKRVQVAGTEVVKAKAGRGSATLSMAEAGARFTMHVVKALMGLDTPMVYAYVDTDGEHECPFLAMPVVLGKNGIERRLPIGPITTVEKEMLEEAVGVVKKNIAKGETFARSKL

N-terminal domain of Pex14 (Pex14NTD), wild type (domain or fragment)
Ka [1]: 1.24e+07 M⁻¹
Ka [2]: 1.9e+07 M⁻¹
Ka [3]: 2.24e+07 M⁻¹

N-terminal domain of Pex14 (Pex14NTD; residues 21-85), Trypanosoma cruzi (domain or fragment)
stoichiometry N [4]: 0.657
Kd [5]: 119 nM
stoichiometry N [5]: 0.762
Kd [6]: 48 nM
stoichiometry N [6]: 0.738
Kd [7]: 122 nM
stoichiometry N [7]: 0.568

N-terminal domain of Pex14 (Pex14NTD; residues 21–85) (domain or fragment)
Kd [8]: 53 nM
dH [8]: -15.4 kcal/mol
stoichiometry N [8]: 0.671
Kd [9]: 81 nM
dH [9]: -13.7 kcal/mol
stoichiometry N [9]: 0.88
Kd [10]: 45 nM
dH [10]: -13.8 kcal/mol
stoichiometry N [10]: 0.659
Kd [11]: 178 nM
dH [11]: -12.6 kcal/mol
stoichiometry N [11]: 0.7

Pex5_(eTPR) (residues 314–666), truncated Pex5 containing an extended TPR domain with a single Wxxx(F/Y) motif (from UniProt Q4DPQ9 316-668) (domain or fragment)
Kd [12]: 1000 nM
dH [12]: -6.07 kcal/mol
stoichiometry N [12]: 0.5
Kd [13]: 148 nM
dH [13]: -5.74 kcal/mol
stoichiometry N [13]: 0.543

Pex5_(eTPR) in presence of excess Pex14NTD (from UniProt Q4DPQ9 316-668) (complex)
Kd [14]: 80 nM

Pex5_(eTPR)(Δ470–480) (from UniProt Q4DPQ9 316-668) (domain or fragment)
Kd [15]: 102 nM
dH [15]: -6.88 kcal/mol
stoichiometry N [15]: 0.452
Kd [16]: 420 nM
dH [16]: -6.31 kcal/mol
stoichiometry N [16]: 1.04

Pex5eTPR, truncated Pex5 with the extended TPR domain and a single Wxxx(F/Y) motif, wild type (from UniProt Q4DPQ9 314-666) (domain or fragment)
Ka [17]: 2.03e+06 M⁻¹ and 2.77e+06 M⁻¹ and 2.21e+06 M⁻¹
Kd [17]: 492 nM and 361 nM and 453 nM
stoichiometry N [17]: 0.309 and 0.622 and 0.265
Ka [18]: 5.79e+06 M⁻¹ and 8.29e+06 M⁻¹
Kd [18]: 173 nM and 121 nM
stoichiometry N [18]: 0.722 and 0.503

Pex14NTD(A48F) (domain or fragment)
Kd [4]: 59 nM
stoichiometry N [4]: 0.68
Kd [8]: 121 nM
dH [8]: -18.3 kcal/mol
stoichiometry N [8]: 0.608
Ka [2]: 8.24e+06 M⁻¹

Pex14NTD(Q52A) (domain or fragment)
Kd [4]: 17 nM
stoichiometry N [4]: 0.647
Kd [8]: 54 nM
dH [8]: -15.7 kcal/mol
stoichiometry N [8]: 0.664
Ka [2]: 1.86e+07 M⁻¹

B1: Pex5_(eTPR) (residues 314–666), truncated Pex5 containing an extended TPR domain with a single Wxxx(F/Y) motif, Q4DPQ9 316-668 (domain or fragment)
chain: MDDGALDNAADVEEWVREYAEAQEQLQRVQNETNYPFEPNNPYMYHDKPMEEGIAMLQLANMAEAALAFEAVCQKEPENVEAWRRLGTTQAENEKDCLAIIALNHARMLDPKDIAVHAALAVSHTNEHNVGAALQSLRSWLLSQPQYEHLGLVDLREVAADEGLDEVPEENYFFAAPSEYRDCCTLLYAAVEMNPNDPQLHASLGVLHNLSHRFDEAAKNFRRAVELRPDDAHMWNKLGATLANGNRPQEALEAYNRALDINPGYVRVMYNMAVSYSNMAQYPLAAKHITRAIALQAGGTNPQGEGSRIATRGLWDLLRMTLNLMDRSDLVEASWQQDLTPFLREFGLEEMAV
modifications: not checked
Kd [19]: 254 nM
dH [20]: -5.02 kcal/mol
stoichiometry N [20]: 0.933
dH [21]: -6.33 kcal/mol
stoichiometry N [21]: 0.398

B2: Pex5_(eTPR)(R625A, D629A) (domain or fragment)
chain: MDDGALDNAADVEEWAREYAEAQEQLQRVQNETNYPFEPNNPYMYHDKPMEEGIAMLQLANMAEAALAFEAVCQKEPENVEAWRRLGTTQAENEKDCLAIIALNHARMLDPKDIAVHAALAVSHTNEHNVGAALQSLRSWLLSQPQYEHLGLVDLQEVAADEGLDEVPEENYFFAAPSEYRDCCTLLYAAVEMNPNDPQLHASLGVLHNLSHRFDEAAKNFRRAVELRPDDAHTWNKLGATLANGNRPQEALEAYNRALDINPGYVRVMYNMAVSYSNMAQYPLAAKHITRAIALQAGGTNPQGEGSRIATAGLWALLRMTLNLMDRSDLVEASWQQDLTPFLKEFGLEDMAV
notes: source: E. coli BL21 (DE3), purified as wild type (Ni-NTA, SEC)
dH [22]: -5.38 ± 0.12 kcal/mol
stoichiometry N [22]: 0.5 ± 0.006

B3: Pex5_(eTPR)(P490R) (domain or fragment)
chain: MDDGALDNAADVEEWAREYAEAQEQLQRVQNETNYPFEPNNPYMYHDKPMEEGIAMLQLANMAEAALAFEAVCQKEPENVEAWRRLGTTQAENEKDCLAIIALNHARMLDPKDIAVHAALAVSHTNEHNVGAALQSLRSWLLSQPQYEHLGLVDLQEVAADEGLDEVPEENYFFAARSEYRDCCTLLYAAVEMNPNDPQLHASLGVLHNLSHRFDEAAKNFRRAVELRPDDAHTWNKLGATLANGNRPQEALEAYNRALDINPGYVRVMYNMAVSYSNMAQYPLAAKHITRAIALQAGGTNPQGEGSRIATRGLWDLLRMTLNLMDRSDLVEASWQQDLTPFLKEFGLEDMAV
notes: as for B2
dH [22]: -6.43 ± 0.215 kcal/mol
stoichiometry N [22]: 0.292 ± 0.006

Reference: publication PMC12738837, “Structure of Trypanosoma peroxisomal import complex unveils conformational heterogeneity” (Nature Communications, 2025)
